# Article PMC13082335, “Matrix plasticity and the molecular basis of extracellular filament assembly in Bacillus cereus” (Science Advances, 2026)
# B1: N-domain(39-190)-His of CapP (domain or fragment)
# chain: AAFIHETKVEATLSTAIIFPKTVNTLKEQSEKHKQFIEREYGTMKGKLKATSIEEIKQAISVWQQGREKIVAEKEALQNVYTEIEAPYNQIQEELKVNKDESMQQVSIYVNEGFRSIKEKRDYIEKEISLKAIDEQIQALQQQLNVAIEAEG
# notes: CapP (BC1280) of Bacillus cereus ATCC14579, residues A39 to G190 (N-terminal domain); also called N-terminal domain; N-terminal construct; source: E. coli Lemo21 (DE3) pLysS, pET24b, purified under native conditions (HisTrap, Superdex 75 SEC); not shown: His6, C-terminal, kept
# Assays:
# [1] = biological target: CapP-His (full-length CapP, BC1280, with C-terminal polyhistidine tag) (Bacillus cereus ATCC14579) (UniProt Q81GC7); assay: native gel or EMSA; native PAGE (Any kD Mini-PROTEAN TGX), 25 mM tris, 192 mM glycine, 200 V, NativeMark marker, Coomassie; second SEC peak
# [2] = biological target: the molecule itself; assay: as above
Molecule,stoichiometry N [1],stoichiometry N [2]
"CapP-His (full-length CapP, BC1280, with C-terminal polyhistidine tag) (from UniProt Q81GC7 1-279) (natural protein)",15,
B1,,~15
